These results are taken from the supplement of paper PMC5998384.

Data set [1] concerns HeLa Kyoto. Kind of data set: thermal stability score vs G1/S (z-score of summed log2 fold changes over temperatures); higher = more thermally stable than in G1/S.
For data set [2], the system named is HeLa Kyoto. Kind of data set: solubility change mitosis vs G1/S (difference of NP-40 vs SDS log2 ratios) (log2 ratio difference); higher = more soluble in mitosis.
The subject of data set [3] is HeLa Kyoto. Nature of the data set: melting temperature (median over replicates), in situ; higher = more thermally stable.
Data set [4] deals with HeLa Kyoto. Kind of data set: solubility in G1/S (NP-40 vs SDS abundance) (log2 ratio); higher = more soluble. The conditions noted are these: cell cycle stage: G1/S.
Where [5] appears, read: cell cycle stage: early G1 (4.5 h after nocodazole release).
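Throughout, for melting temperature (median over replicates), in situ: HeLa Kyoto cells synchronized by double thymidine or nocodazole block, proteins quantified by TMT10plex mass spectrometry, three independent biological replicates.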
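Throughout, for solubility change mitosis vs G1/S (difference of NP-40 vs SDS log2 ratios): synchronized HeLa Kyoto cells (double thymidine block for G1/S, nocodazole release for mitosis), protein amounts in NP-40 versus SDS lysates quantified by mass spectrometry, three biological replicates.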
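Throughout, for solubility in G1/S (NP-40 vs SDS abundance): HeLa Kyoto cells arrested at G1/S by double thymidine block, proteins quantified by TMT10plex mass spectrometry in mild NP-40 versus SDS extracts, three biological replicates.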
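Throughout, for thermal stability score vs G1/S (z-score of summed log2 fold changes over temperatures): synchronized HeLa Kyoto cells, proteins quantified by TMT10plex mass spectrometry, three biological replicates, mitosis taken 0.5 h after nocodazole release, G1/S directly after double thymidine block.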

With “MLSESSSFLKGVMLGSIFCALITMLGHIRIGHGNRMHHHEHHHLQAPNKEDILKISEDERMELSKSFRVYCIILVKPKDVSLWAAVKETWTKHCDKAEFFSSENVKVFESINMDTNDMWLMMRKAYKYAFDKYRDQYNWFFLARPTTFAIIENLKYFLLKKDPSQPFYLGHTIKSGDLEYVGMEGGIVLSVESMKRLNSLLNIPEKCPEQGGMIWKISEDKQLAVCLKYAGVFAENAEDADGKDVFNTKSVGLSIKEAMTYHPNQVVEGCCSDMAVTFNGLTPNQMHVMMYGVYRLRAFGHIFNDALVFLPPNGSDND [C1GALT1C1]”, the results for the thermal stability score in the data set with HeLa Kyoto [1] (setting [5]) and in the data set with HeLa Kyoto [1] (cell cycle stage: mitosis) were -0.0972 and -0.609, respectively. Also, the “solubility change mitosis (log2)” value with HeLa Kyoto [2] is -0.0947. The figures for the melting temperature in the data set with HeLa Kyoto [3] (cell cycle stage: G1/S) and in the data set with HeLa Kyoto [3] (cell cycle stage: mitosis) were 53.9 °C and 53.4 °C, respectively. Besides, the “solubility in G1/S (log2)” value with HeLa Kyoto [4] came to 0.0342.

With “MLSLLVWILTLSDTFSQGTQTRFSQEPADQTVVAGQRAVLPCVLLNYSGIVQWTKDGLALGMGQGLKAWPRYRVVGSADAGQYNLEITDAELSDDASYECQATEAALRSRRAKLTVLIPPEDTRIDGGPVILLQAGTPHNLTCRAFNAKPAATIIWFRDGTQQEGAVASTELLKDGKRETTVSQLLINPTDLDIGRVFTCRSMNEAIPSGKETSIELDVHHPPTVTLSIEPQTVQEGERVVFTCQATANPEILGYRWAKGGFLIEDAHESRYETNVDYSFFTEPVSCEVHNKVGSTNVSTLVNVHFAPRIVVDPKPTTTDIGSDVTLTCVWVGNPPLTLTWTKKDSNMVLSNSNQLLLKSVTQADAGTYTCRAIVPRIGVAEREVPLYVNGPPIISSEAVQYAVRGDGGKVECFIGSTPPPDRIAWAWKENFLEVGTLERYTVERTNSGSGVLSTLTINNVMEADFQTHYNCTAWNSFGPGTAIIQLEEREVLPVGIIAGATIGASILLIFFFIALVFFLYRRRKGSRKDVTLRKLDIKVETVNREPLTMHSDREDDTASVSTATRVMKAIYSSFKDDVDLKQDLRCDTIDTREEYEMKDPTNGYYNVRAHEDRPSSRAVLYADYRAPGPARFDGRPSSRLSHSSGYAQLNTYSRGPASDYGPEPTPPGPAAPAGTDTTSQLSYENYEKFNSHPFPGAAGYPTYRLGYPQAPPSGLERTPYEAYDPIGKYATATRFSYTSQHSDYGQRFQQRMQTHV [KIRREL]”, the figures for the thermal stability score in the data set on HeLa Kyoto [1] (setting [5]) and in the data set on HeLa Kyoto [1] (cell cycle stage: mitosis) were -1.16 and -0.769, respectively. For the same sequence, in the data set on HeLa Kyoto [2], the “solubility change mitosis (log2)” value stood at 0.0763. The melting temperature stood at 52 °C in the data set on HeLa Kyoto [3] (cell cycle stage: G1/S) and 52.2 °C in the data set on HeLa Kyoto [3] (cell cycle stage: mitosis). Besides, the “solubility in G1/S (log2)” value in the data set on HeLa Kyoto [4] was -0.151.

As for “MLSSCVRPVPTTVRFVDSLICNSSRSFMDLKALLSSLNDFASLSFAESWDNVGLLVEPSPPHTVNTLFLTNDLTEEVMEEVLQKKADLILSYHPPIFRPMKRITWNTWKERLVIRALENRVGIYSPHTAYDAAPQGVNNWLAKGLGACTSRPIHPSKAPNYPTEGNHRVEFNVNYTQDLDKVMSAVKGIDGVSVTSFSARTGNEEQTRINLNCTQKALMQVVDFLSRNKQLYQKTEILSLEKPLLLHTGMGRLCTLDESVSLATMIDRIKRHLKLSHIRLALGVGRTLESQVKVVALCAGSGSSVLQGVEADLYLTGEMSHHDTLDAASQGINVILCEHSNTERGFLSDLRDMLDSHLENKINIILSETDRDPLQVV [NIF3L1]”, the thermal stability score in the data set with HeLa Kyoto [1] (setting [5]) was -0.711; in the data set with HeLa Kyoto [1] (cell cycle stage: mitosis) it was -0.332. For the same sequence, the “solubility change mitosis (log2)” value in the data set on HeLa Kyoto [2] was -0.161. The melting temperature in the data set on HeLa Kyoto [3] (cell cycle stage: G1/S) amounted to 60.8 °C; in the data set with HeLa Kyoto [3] (cell cycle stage: mitosis) it was 60.7 °C. Also, in the data set on HeLa Kyoto [4], the “solubility in G1/S (log2)” value was found to be 0.187.

Take “MLSVRVAAAVVRALPRRAGLVSRNALGSSFIAARNFHASNTHLQKTGTAEMSSILEERILGADTSVDLEETGRVLSIGDGIARVHGLRNVQAEEMVEFSSGLKGMSLNLEPDNVGVVVFGNDKLIKEGDIVKRTGAIVDVPVGEELLGRVVDALGNAIDGKGPIGSKTRRRVGLKAPGIIPRISVREPMQTGIKAVDSLVPIGRGQRELIIGDRQTGKTSIAIDTIINQKRFNDGSDEKKKLYCIYVAIGQKRSTVAQLVKRLTDADAMKYTIVVSATASDAAPLQYLAPYSGCSMGEYFRDNGKHALIIYDDLSKQAVAYRQMSLLLRRPPGREAYPGDVFYLHSRLLERAAKMNDAFGGGSLTALPVIETQAGDVSAYIPTNVISITDGQIFLETELFYKGIRPAINVGLSVSRVGSAAQTRAMKQVAGTMKLELAQYREVAAFAQFGSDLDAATQQLLSRGVRLTELLKQGQYSPMAIEEQVAVIYAGVRGYLDKLEPSKITKFENAFLSHVVSQHQALLGTIRADGKISEQSDAKLKEIVTNFLAGFEA [ATP5A1]”: the thermal stability score with HeLa Kyoto [1] (setting [5]) is -1.58; with HeLa Kyoto [1] (cell cycle stage: mitosis), -1.35. For the same sequence, in the data set on HeLa Kyoto [2], the “solubility change mitosis (log2)” value is -0.0479. Further, the figures for the melting temperature with HeLa Kyoto [3] (cell cycle stage: G1/S) and in the data set on HeLa Kyoto [3] (cell cycle stage: mitosis) were 59.9 °C and 58.9 °C, respectively. Moreover, the “solubility in G1/S (log2)” value in the data set with HeLa Kyoto [4] amounted to 0.231.

For the sequence “MLTLQTWLVQALFIFLTTESTGELLDPCGYISPESPVVQLHSNFTAVCVLKEKCMDYFHVNANYIVWKTNHFTIPKEQYTIINRTASSVTFTDIASLNIQLTCNILTFGQLEQNVYGITIISGLPPEKPKNLSCIVNEGKKMRCEWDGGRETHLETNFTLKSEWATHKFADCKAKRDTPTSCTVDYSTVYFVNIEVWVEAENALGKVTSDHINFDPVYKVKPNPPHNLSVINSEELSSILKLTWTNPSIKSVIILKYNIQYRTKDASTWSQIPPEDTASTRSSFTVQDLKPFTEYVFRIRCMKEDGKGYWSDWSEEASGITYEDRPSKAPSFWYKIDPSHTQGYRTVQLVWKTLPPFEANGKILDYEVTLTRWKSHLQNYTVNATKLTVNLTNDRYLATLTVRNLVGKSDAAVLTIPACDFQATHPVMDLKAFPKDNMLWVEWTTPRESVKKYILEWCVLSDKAPCITDWQQEDGTVHRTYLRGNLAESKCYLITVTPVYADGPGSPESIKAYLKQAPPSKGPTVRTKKVGKNEAVLEWDQLPVDVQNGFIRNYTIFYRTIIGNETAVNVDSSHTEYTLSSLTSDTLYMVRMAAYTDEGGKDGPEFTFTTPKFAQGEIEAIVVPVCLAFLLTTLLGVLFCFNKRDLIKKHIWPNVPDPSKSHIAQWSPHTPPRHNFNSKDQMYSDGNFTDVSVVEIEANDKKPFPEDLKSLDLFKKEKINTEGHSSGIGGSSCMSSSRPSISSSDENESSQNTSSTVQYSTVVHSGYRHQVPSVQVFSRSESTQPLLDSEERPEDLQLVDHVDGGDGILPRQQYFKQNCSQHESSPDISHFERSKQVSSVNEEDFVRLKQQISDHISQSCGSGQMKMFQEVSAADAFGPGTEGQVERFETVGMEAATDEGMPKSYLPQTVRQGGYMPQ [IL6ST]”, the thermal stability score was -2.55 in the data set with HeLa Kyoto [1] (setting [5]) and -3.18 with HeLa Kyoto [1] (cell cycle stage: mitosis). The “solubility change mitosis (log2)” value with HeLa Kyoto [2] is 0.0736. The melting temperature in the data set with HeLa Kyoto [3] (cell cycle stage: G1/S) amounted to 53.9 °C; in the data set with HeLa Kyoto [3] (cell cycle stage: mitosis) it was 56.2 °C. Also, the “solubility in G1/S (log2)” value in the data set with HeLa Kyoto [4] is 0.0822.
